Measurements reported in paper PMC3408433, “Selective Cytotoxicity of Amidinopiperidine Based Compounds Towards Burkitt’s Lymphoma Cells Involves Proteasome Inhibition” (PLoS ONE, 2012).

System: Cc1cc(=O)oc2cc(NC(=O)[C@H](Cc3ccccc3)NC(=O)[C@@H]3CCCN3C(=O)[C@H](C)NC(=O)[C@H](C)NC(=O)CCC(=O)O)ccc12
Experiment: purified protein, by the assay type
Conditions: other: mean of six independent experiments, pH 7.8, 30°C
Protocol: In short, a 1 nM solution of α-chymotrypsin was mixed with various concentrations of the substrate Suc-Ala-Ala-Pro-Phe-AMC. All the solutions were prepared in 144 mM Tris–HCl, pH 7.8. Substrate hydrolysis was monitored at 30°C on an automated Tecan Safire^2 microplate reader (Tecan, Mannedorf/Zürich, Switzerland). The initial rates of the reactions (ΔF/Δt) were measured immediately after the addition of the substrate (within 200 s) and plotted versus substrate concentration with nonlinear regression to fit a Michaelis-Menten plot. The curve fit and kinetic parameters (Km and v max) were calculated using GraphPad PRISM version 5.0 software (GraphPad Software, Inc., CA, USA). […] The initial velocities of the hydrolysis reactions were measured under the same conditions as described for the determination of Km. 50 µl of α-chymotrypsin solution was added to 50 µl of each inhibitor solution (prepared in 144 mM Tris–HCl, pH 7.8; final concentration 1 nM) and incubated at 30°C for 15 min. The reaction was initiated with the addition of 100 µl of substrate. […] The Ki values were determined as mean values of all measurements.

α-chymotrypsin (Bos taurus) was tested, and the Km was 66 ± 9 µM.
